Assay results: the supplement of paper PMC9112550, “Optimization of the antimicrobial peptide Bac7 by deep mutational scanning” (BMC Biology, 2022)

Tested on: Escherichia coli TOP10
Assay: shrunken log2 fold change of peptide-encoding DNA abundance (4.5 h post-induction vs induction); higher = less antimicrobial activity (less host growth inhibition)
Details: time post-induction: 4.5 h; library: site-saturation at positions 5, 18, 19, 20
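Also: peptides expressed intracellularly from a pBAD plasmid library in pooled LB shake-flask culture, induced with 0.3% L-arabinose, DNA abundance read by NGS, three biological replicates, DESeq2 with apeglm shrinkage.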

Sequence	shrunken log2 fold change
RRIRSRPPRLPRPRPRPKRPPRP	0.413
RRIRYRPPRLPRPRPRPREHPRP	-0.00116
RRIRPRPPRLPRPRPRPVAFPRP	-0.0622
RRIRSRPPRLPRPRPRPAFMPRP	0.309
RRIRWRPPRLPRPRPRPLTSPRP	-0.101
RRIRPRPPRLPRPRPRPRVSPRP	0.00758
RRIRWRPPRLPRPRPRPGYVPRP	-0.215
RRIRHRPPRLPRPRPRPFHNPRP	-0.305
RRIRSRPPRLPRPRPRPLKYPRP	-0.653
RRIRGRPPRLPRPRPRPWNTPRP	0.111
RRIRNRPPRLPRPRPRPRPNPRP	0.135
RRIRHRPPRLPRPRPRPPMRPRP	0.747
RRIRHRPPRLPRPRPRPDYYPRP	-0.622
RRIRYRPPRLPRPRPRPQFHPRP	-1.09
RRIRHRPPRLPRPRPRPNFMPRP	-0.5
RRIRNRPPRLPRPRPRPGPSPRP	0.516
RRIRYRPPRLPRPRPRPLKDPRP	-0.00674
RRIRMRPPRLPRPRPRPPDLPRP	0.129
RRIRFRPPRLPRPRPRPRYVPRP	-0.105
RRIRFRPPRLPRPRPRPYLQPRP	-0.527
RRIRPRPPRLPRPRPRPRTNPRP	-0.0218
RRIRQRPPRLPRPRPRPEAWPRP	0.316

Sequence	shrunken log2 fold change
RRIRHRPPRLPRPRPRPFKAPRP	-0.0378
RRIRPRPPRLPRPRPRPDMQPRP	-0.21
RRIRYRPPRLPRPRPRPALRPRP	-0.0531
RRIRLRPPRLPRPRPRPMFCPRP	-0.752
RRIRYRPPRLPRPRPRPNSSPRP	0.0291
RRIRRRPPRLPRPRPRPMMQPRP	0.112
RRIRTRPPRLPRPRPRPLKKPRP	-0.0468
RRIRWRPPRLPRPRPRPNCWPRP	0.533
RRIRRRPPRLPRPRPRPSKEPRP	0.137
RRIRCRPPRLPRPRPRPMHTPRP	-0.106
RRIRLRPPRLPRPRPRPIEQPRP	-0.0092
RRIRGRPPRLPRPRPRPGLVPRP	0.848
RRIRSRPPRLPRPRPRPWFCPRP	-0.439
RRIRPRPPRLPRPRPRPQLPPRP	0.0534
RRIRKRPPRLPRPRPRPRCMPRP	0.401
RRIRGRPPRLPRPRPRPVKWPRP	0.47
RRIRDRPPRLPRPRPRPCQYPRP	-0.0971
RRIRKRPPRLPRPRPRPASYPRP	-0.0778
RRIRKRPPRLPRPRPRPHCNPRP	-0.275
RRIRVRPPRLPRPRPRPSKGPRP	-0.276
RRIRPRPPRLPRPRPRPPHTPRP	0.398
RRIRTRPPRLPRPRPRPLLLPRP	0.758

Sequence	shrunken log2 fold change
RRIRIRPPRLPRPRPRPHNPPRP	-1.23
RRIRGRPPRLPRPRPRPCLHPRP	0.331
RRIRCRPPRLPRPRPRPCKWPRP	-0.208
RRIRRRPPRLPRPRPRPESIPRP	-0.195
RRIRERPPRLPRPRPRPNAVPRP	-0.407
RRIRDRPPRLPRPRPRPKDYPRP	-0.192
RRIRHRPPRLPRPRPRPMNPPRP	-0.379
RRIRGRPPRLPRPRPRPQMIPRP	1.83
RRIRKRPPRLPRPRPRPGILPRP	0.28
RRIRFRPPRLPRPRPRPGLCPRP	0.606
RRIRDRPPRLPRPRPRPKPCPRP	0.0155
RRIRVRPPRLPRPRPRPQTVPRP	-0.0217
RRIRPRPPRLPRPRPRPSEQPRP	-0.233
RRIRNRPPRLPRPRPRPDLIPRP	-0.172
RRIRVRPPRLPRPRPRPINAPRP	-0.174
RRIRIRPPRLPRPRPRPGHSPRP	0.00697
RRIRHRPPRLPRPRPRPWKLPRP	-0.185
RRIRKRPPRLPRPRPRPETLPRP	0.0437
RRIRTRPPRLPRPRPRPMLDPRP	-0.0137
RRIRPRPPRLPRPRPRPVKNPRP	0.00624
RRIRRRPPRLPRPRPRPQSNPRP	-0.285
RRIRTRPPRLPRPRPRPLNRPRP	-0.173

Sequence	shrunken log2 fold change
RRIRMRPPRLPRPRPRPAQEPRP	0.0616
RRIRERPPRLPRPRPRPCSCPRP	-0.00783
RRIRMRPPRLPRPRPRPRKYPRP	0.276
RRIRCRPPRLPRPRPRPCFIPRP	-0.488
RRIRKRPPRLPRPRPRPDFTPRP	-0.206
RRIRWRPPRLPRPRPRPWPQPRP	0.273
RRIRCRPPRLPRPRPRPLLMPRP	-0.195
RRIRLRPPRLPRPRPRPGQDPRP	0.0899
RRIRLRPPRLPRPRPRPMTWPRP	-0.384
RRIRWRPPRLPRPRPRPQCTPRP	0.11
RRIRIRPPRLPRPRPRPISIPRP	0.0772
RRIRGRPPRLPRPRPRPLHAPRP	1.54
RRIRWRPPRLPRPRPRPYTRPRP	-0.774
RRIRFRPPRLPRPRPRPSWFPRP	-0.403
RRIRARPPRLPRPRPRPNEVPRP	0.0341
RRIRDRPPRLPRPRPRPDVIPRP	0.00273
RRIRIRPPRLPRPRPRPLLYPRP	0.47
RRIRYRPPRLPRPRPRPMYHPRP	-0.707
RRIRWRPPRLPRPRPRPYQTPRP	-0.223
RRIRTRPPRLPRPRPRPCMDPRP	-0.459
RRIRFRPPRLPRPRPRPDMLPRP	-0.125
RRIRRRPPRLPRPRPRPEISPRP	0.17

Sequence	shrunken log2 fold change
RRIRSRPPRLPRPRPRPGFPPRP	-0.00277
RRIRFRPPRLPRPRPRPDNTPRP	-0.491
RRIRERPPRLPRPRPRPMVRPRP	-0.019
RRIRARPPRLPRPRPRPLSMPRP	-0.129
RRIRDRPPRLPRPRPRPVPKPRP	0.32
RRIRKRPPRLPRPRPRPDQDPRP	0.0345
RRIRDRPPRLPRPRPRPPQMPRP	0.746
RRIRSRPPRLPRPRPRPGLCPRP	0.238
RRIRWRPPRLPRPRPRPTQYPRP	0.0537
RRIRSRPPRLPRPRPRPSRRPRP	0.208
RRIRTRPPRLPRPRPRPFGDPRP	0.0755
RRIRMRPPRLPRPRPRPWSVPRP	-0.0283
RRIRMRPPRLPRPRPRPQCMPRP	-0.0822
RRIRRRPPRLPRPRPRPHWSPRP	-0.0676
RRIRYRPPRLPRPRPRPYLPPRP	-0.174
RRIRPRPPRLPRPRPRPNMDPRP	-0.674
RRIRVRPPRLPRPRPRPGVGPRP	0.275
RRIRARPPRLPRPRPRPGFTPRP	0.204
RRIRYRPPRLPRPRPRPVFGPRP	-0.415
RRIRSRPPRLPRPRPRPQIFPRP	0.0933
RRIRGRPPRLPRPRPRPAQDPRP	0.836
